Data published in US20020187934A1.

Biological target: purified HLA-DR4Dw4 (human)
Experiment: Test A: competition with biotin-FHA307-320 for purified HLA-DR4Dw4, ELISA read-out

concentration showing significant binding: < 0.1 µM
Substance: Phv-Arg-Ala-IIb-Thr-Ala-Ala-Ala-Papa-NH2 (SEQ ID NO:1) (peptide)
